Measurements taken from patent US20140186348A1 (published 2014).
Positions count from the first letter of the chain named. Like-named read-outs stand apart in the source and are kept apart here.

B1: NM9401-IgG (murine anti-properdin monoclonal antibody, IgG1) (antibody, V domains shown)
VH: QVQLQQSAPELARPGASVKMSCTASGYIFTNYPIHWVKQRPGQGLEWIGFIDPGGGYDEPDERFRDRATLTADKSSSTAYMQLSSLTSEDSAIYYCARRGGGYYLDYWGQGTTLTVSS
VL: DIQMTQTTSSLSASLGDRVTISCRASQDISFFLNWYQQKPDGTVKLLIYYTSRYHSGVPSRFSGSGSGTDFSLTINNLEQEDFATYFCQHGNTLPWTFGGGTKLEIKR
B2: NM9401-Fab (Fab, V domains shown)
VH: B1 VH
VL: B1 VL
B3: NM9401-F(ab′)2 (other)
VH: QVQLQQSAPELARPGASVKMSCTASGYIFTNYPIHWVKQRPGQGLEWIGFIDPGGGYDEPDERFRDRATLTADKSSSTAYMQLSSLTSEDSAIYYCARRGGGYYLDYWGQGTTLTVSSAKTT
VL: DIQMTQTTSSLSASLGDRVTISCRASQDISFFLNWYQQKPDGTVKLLIYYTSRYHSGVPSRFSGSGSGTDFSLTINNLEQEDFATYFCQHGNTLPWTFGGGTKLEIKRADAAPTVSIFPPSSEQLTSGGASVVCFLNN
B4: BAP010hum02 (humanized anti-properdin monoclonal antibody) (antibody, V domains shown)
VH: QVQLQESGPGLVKPSQTLSLTCTVSGYIFTNYPIHWVRQAPGKGLEWVSFIDPGGGYDEPDERFRDRVTISVDTSKNQFSLKLSSVTAADTAVYYCARRGGGYYLDYWGQG
VL: EIVLTQSPATLSLSPGERATLSCRASQDISFFLNWFQQRPGQSPRRLIYYTSRYHSGIPPRFSGSGYGTDFTLTINNIESEDAAYYFCQHGNTLPWTFGQG
B5: BAP010hum10 (humanized anti-properdin monoclonal antibody) (antibody, V domains shown)
VH: QVQLQESGPGLVKPSQTLSLTCTVSGYIFTNYPIHWVRQATGQGLEWMGFIDPGGGYDEPDERFRDRVTITADKSTSTAYMELSSLRSEDTAVYYCARRGGGYYLDYWGQG
VL: DIQMTQSPSSLSASVGDRVTITCRASQDISFFLNWYQQKPGKAPKLLIYYTSRYHSGIPPRFSGSGYGTEFTFTISSLEAEDAATYYCQHGNTLPWTFGQG
B6: BAP010hum03 (humanized anti-properdin monoclonal antibody) (antibody, V domains shown)
VH: EVQLVQSGAEVKKPGESLRISCKGSGYIFTNYPIHWIRQSPSRGLEWLGFIDPGGGYDEPDERFRDRVTISADKSISTAYLQWSSLKASDTAMYYCARRGGGYYLDYWGQG
VL: B5 VL with I58V, P60S, Y67S, F73L, E79Q, A80S, A83F, T85V

Key:
[1] = target: T1, human properdin (human, UniProt P27918 28-469); experiment: ELISA
[2] = target: T1, human properdin; experiment: ELISA; remark: listed apart in the source
[3] = target: T1, human properdin; experiment: ELISA, inhibition of properdin binding to C3b
[4] = target: T1, human properdin; experiment: ELISA; remark: listed apart in the source

T1 sequence (P27918 28-469): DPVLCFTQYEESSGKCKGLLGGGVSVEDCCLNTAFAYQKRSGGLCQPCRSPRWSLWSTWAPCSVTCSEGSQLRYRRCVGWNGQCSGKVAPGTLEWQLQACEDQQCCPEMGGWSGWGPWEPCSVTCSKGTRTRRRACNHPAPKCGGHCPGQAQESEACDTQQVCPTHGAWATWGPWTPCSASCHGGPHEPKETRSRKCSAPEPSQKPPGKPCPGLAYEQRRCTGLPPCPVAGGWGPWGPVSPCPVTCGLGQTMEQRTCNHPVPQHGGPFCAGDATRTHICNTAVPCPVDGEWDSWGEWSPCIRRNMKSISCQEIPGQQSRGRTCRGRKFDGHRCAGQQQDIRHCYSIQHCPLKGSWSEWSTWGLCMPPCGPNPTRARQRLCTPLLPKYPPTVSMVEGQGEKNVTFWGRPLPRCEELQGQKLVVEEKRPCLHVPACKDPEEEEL

Row | Binder | Kd [2] | Kd [4] | further results
1 | B1 | 0.101 nM |  | Kd [1]: 0.256 nM; IC50 [3]: 10.7 nM
2 | B2 | 0.103 nM |  | 
3 | B3 | 0.118 nM |  | 
4 | B4 |  | 0.0138 nM | 
5 | B5 |  | 0.0236 nM | 
6 | B6 |  | 0.0207 nM | 
